Data taken from the supplement of paper PMC7877785.
± gives the uncertainty stated by the source.

Experiment: self-splicing fitness, log relative to wild type (ln ratio); higher = more splicing; Tetrahymena group I intron in knt gene, E. coli kanamycin selection, DiMSum; sequences stand for … in CUCUCU…GGAGGGAAAAGUUAUCAGGCAUGCACCUGGUAGCUAGUCUUUAAACCAAUAGAUUGCAUCGGUUUAAAAGGCAAGACCGUCAAAUUGCGGGAAAGGGGUCAACAGCCGUUCAGUACCAAGUCUCAGGGGAAACUUUGAGAUGGCCUUGCAAAGGGUAUGGUAAUAAGCUGACGGACAUGGUCCUAACCACGCAGCCAAGUCCUAAGUCAACAGAUCUUCUGUUGAUAUGGAUGCAGUUCACAGACUAAAUGUCGGUCGGGGAAGAUGUAUUCUUCUCAUAAGAUAUAGUCGGACCUCUCCUUAAUGGGAGCUAGCGGAUGAAGUGAUGCAACACUGGAGCCGCUGGGAACUAAUUUGUAUGCGAAAGUAUAUUGAUUAGUUUUGGAGUACUCGUGGUCG
Method in brief: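 Fitness was computed with DiMSum as the error-weighted combination of replicate fold changes, kanamycin versus none, each normalised to wild type. The library randomised all eight intron nucleotides of the P1ex region, with the intron placed in the knt kanamycin-resistance gene on pET-22b(+) in E. coli BL21(DE3). Six replicate transformations were grown overnight at 37°C or 30°C on LB agar with or without 25 μg/mL kanamycin, plus 100 μg/mL carbenicillin, 50 μM IPTG and 0.2% rhamnose. Pooled colonies were amplicon-sequenced on an Illumina HiSeq 2500.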

| Sequence | self-splicing fitness (ln) (30 °C) | self-splicing fitness (ln) (37 °C) |
| --- | --- | --- |
| AAUAAGCAAUAUUACGAAAC | -3.3 ± 0.39 | -2.17 ± 0.49 |
| AAUAAGCAAUAUUACGACAC | -1.12 ± 0.16 | -0.462 ± 0.16 |
| AAUAAGCAAUAUUACGAGCU | -0.949 ± 0.1 | -0.237 ± 0.1 |
| AAUAAGCAAUAUUACGAGUC | -3.1 ± 0.28 | -1.48 ± 0.18 |
| AAUAAGCAAUAUUACGAUCC | -0.993 ± 0.21 | -0.374 ± 0.24 |
| AAUAAGCAAUAUUACGCGCU | -0.554 ± 0.17 | -0.562 ± 0.18 |
| AAUAAGCAAUAUUACGCGUU | -3.75 ± 0.15 | -1.8 ± 0.14 |
| AAUAAGCAAUAUUACGCUCA | -0.304 ± 0.091 | -0.155 ± 0.12 |
| AAUAAGCAAUAUUACGGCCA | -0.21 ± 0.12 | -0.615 ± 0.12 |
| AAUAAGCAAUAUUACGGCGG | -0.94 ± 0.093 | -0.865 ± 0.1 |
| AAUAAGCAAUAUUACGGUAU | -2.05 ± 0.099 | -1.04 ± 0.13 |
| AAUAAGCAAUAUUACGGUGU | -2.59 ± 0.12 | -0.711 ± 0.12 |
| AAUAAGCAAUAUUACGUAGU | -3.14 ± 0.15 | -2.15 ± 0.19 |
| AAUAAGCAAUAUUACGUGAG | -0.815 ± 0.065 | -0.198 ± 0.093 |
| AAUAAGCAAUAUUACGUGCA | -0.334 ± 0.062 | 0.0616 ± 0.079 |
| AAUAAGCAAUAUUACGUGUG | -1.05 ± 0.077 | -1.57 ± 0.1 |
| AAUCAGCAAUAUUACGAAGA | -0.26 ± 0.087 | 0.0829 ± 0.099 |
| AAUCAGCAAUAUUACGAAGG | -1.16 ± 0.071 | -0.793 ± 0.099 |
| AAUCAGCAAUAUUACGAUUC | -2.99 ± 0.2 | -3.73 ± 0.39 |
| AAUCAGCAAUAUUACGCAAU | -0.895 ± 0.067 | -0.0563 ± 0.093 |
| AAUCAGCAAUAUUACGCACU | -0.299 ± 0.077 | 0.326 ± 0.093 |
| AAUCAGCAAUAUUACGCCAA | -1.61 ± 0.14 | -0.855 ± 0.15 |
| AAUCAGCAAUAUUACGCGAA | -0.0302 ± 0.071 | 0.278 ± 0.098 |
| AAUCAGCAAUAUUACGCGUA | -0.281 ± 0.068 | 0.0946 ± 0.082 |

| Sequence | self-splicing fitness (ln) (30 °C) | self-splicing fitness (ln) (37 °C) |
| --- | --- | --- |
| AAUCAGCAAUAUUACGCUAC | -2.83 ± 0.23 | -2.22 ± 0.27 |
| AAUCAGCAAUAUUACGGACA | -0.225 ± 0.077 | -0.145 ± 0.091 |
| AAUCAGCAAUAUUACGGAGG | -1.01 ± 0.084 | -1.18 ± 0.1 |
| AAUCAGCAAUAUUACGGCAU | -0.109 ± 0.045 | 0.27 ± 0.059 |
| AAUCAGCAAUAUUACGGUUC | -2.32 ± 0.11 | -1.91 ± 0.17 |
| AAUCAGCAAUAUUACGUCCG | -1.59 ± 0.085 | -0.00732 ± 0.11 |
| AAUCAGCAAUAUUACGUGGG | -2.12 ± 0.11 | -1.09 ± 0.12 |
| AAUCAGCAAUAUUACGUGUC | -0.924 ± 0.053 | -0.319 ± 0.069 |
| AAUCAGCAAUAUUACGUGUU | -0.901 ± 0.056 | 0.209 ± 0.064 |
| AAUGAGCAAUAUUACGAAAA | -3.58 ± 0.4 | -2.1 ± 0.27 |
| AAUGAGCAAUAUUACGACUC | -1.05 ± 0.13 | -0.904 ± 0.15 |
| AAUGAGCAAUAUUACGAGGG | -4.5 ± 0.29 | -1.98 ± 0.17 |
| AAUGAGCAAUAUUACGAGUC | -4.32 ± 0.46 | -3.08 ± 0.47 |
| AAUGAGCAAUAUUACGAUUU | -1.24 ± 0.095 | -0.73 ± 0.1 |
| AAUGAGCAAUAUUACGCCAG | -3.99 ± 0.3 | -2.87 ± 0.47 |
| AAUGAGCAAUAUUACGCCGC |  | -1.7 ± 0.42 |
| AAUGAGCAAUAUUACGCGCU |  | -1.72 ± 0.37 |
| AAUGAGCAAUAUUACGCUAU | -2.84 ± 0.28 | -1 ± 0.16 |
| AAUGAGCAAUAUUACGGAGC | -3.43 ± 0.25 | -1.03 ± 0.44 |
| AAUGAGCAAUAUUACGGAUG | -3.35 ± 0.17 | -2.23 ± 0.22 |
| AAUGAGCAAUAUUACGGUAG | -4.54 ± 0.32 | -3.47 ± 0.24 |
| AAUGAGCAAUAUUACGGUGG | -3.48 ± 0.21 | -1.89 ± 0.24 |
| AAUGAGCAAUAUUACGUGGU | -2.41 ± 0.11 | -3.49 ± 0.23 |
| AAUGAGCAAUAUUACGUGUA | -3.35 ± 0.23 | -2.56 ± 0.21 |
